The test system of data set [1] is CC(=O)N[C@H]1[C@H](Oc2ccc([N+](=O)[O-])cc2)O[C@H](CO)[C@@H](O)[C@@H]1O. The experiment in a line: purified protein. To be noted: 0.1 M phosphate pH 7.0, 37°C, 0-500 μM substrate, enzyme unstable.
Substrate in data set [2]: CC(=O)N[C@H]1[C@H](Oc2ccc([N+](=O)[O-])cc2)O[C@H](CO)[C@@H](O)[C@@H]1O
The experiment in a line: initial rates, reducing sugar (DNS) assay, nonlinear regression. The class given is biochemical, Vibrio harveyi. The note with it: 0.1 M phosphate pH 7.0, 37°C, 0-500 μM substrate. The source says:
initial rates, reducing sugar (DNS) assay, nonlinear regression on VhNag2

Take VhNag1 (Vibrio harveyi): in data set [1], the Km (commonly the concentration of substrate that gives half-maximal velocity) is 172 ± 48 µM; the kcat – broadly, the maximal rate divided by the concentration of active sites – worked out at 0.08 s⁻¹; the kcat/Km – broadly, the second-order rate constant that governs catalysis at low substrate concentration – came out at 465 M⁻¹ s⁻¹.

B1: VhNag2 (Vibrio harveyi) (protein)
chain: EYRVDLVVLSEQKQNCRFGLTFHNLSDQDLNSWGLTFAFDRYILPDSVSNGQLTQIGSFCTLKPEGIVLAANHHYYCEFSIGSNPFRYYSDGFNEAMIDFVVDGQPQRAQVDVTPIVLASPYRERSDIPASLTHAQPLLPKPNHIEVSDHSFTFDEQAGVAIYTDLANSAKAWLLEELQRIHQFTLSSSNSGKIIFKSNPTLDEGAYKLKVSEESIKIEAGSSSGFTHACATLLQLLKRDEATKTMEAVCCSIIDSPRFRYRGMMLDCARHFHSVEQVKRLINLLAHYKLNTFHWHLTDDEGWRVEIKSLPQLTEIGAWRGIDETIEPQYTHLSQRYGGFYTQEEIRDVIAFAEQRGITIIPEIDVPGHCRAAIKSLPHLLIEAEDTTEYRSIQHYNDNVINPALPGSYEFIDKVLEEIAALFPAPYVHIGADEVPNGVWSKSPACQALMEQLGYTDYKELQGHFLRHAEDKLRKLGKRMLGWEEAQHGNKVSKDTVIYSWLSEEAALNCARQGFDVVLQPAQTTYLDMTQDYAPEEPGVDWANPLPLEKAYNYEPLAEVPADDPIRKRIWGIQTALWCEIINNPSRMDYMIFPRLTAMAEACWTEKQHRDWTDYLSRLKGHLPLLDLQGVNYRKPWK
notes: full-length, 1,926 bp, 73,143 Da, C-terminal His6 (pQE60), E. coli M15, Ni-NTA; no signal peptide predicted
B1: in data set [2], the Km was found to be 77 ± 17 µM, the kcat was 0.38 s⁻¹ and the kcat/Km came out at 4940 M⁻¹ s⁻¹.

Values taken from PMC2955587, “Novel β-N-acetylglucosaminidases from Vibrio harveyi 650: Cloning, expression, enzymatic properties, and subsite identification” (BMC Biochemistry, 2010).
